Ends that are not written are not given here.
What was measured:
pilotin (OutS) = test: 3JHNHA NMR spectra of secretin peptide with pilotin; type: binding, Dickeya dadantii; details: presence of pilotin, 15°C
Procedure: (§1) Samples of 0.05 to 0.5 mM labelled proteins in 90% H2O, 10% ^2H2O containing 20 mM Tris (pH 7.0) and 150 mM NaCl. All NMR spectra were acquired at 15°C using Bruker Avance 700- and 600-MHz spectrometers. Assignment of ^1H, ^15N, and ^13C resonances of the backbone was achieved by analysis of HNCACB, CBCA (CO)NH triple resonance experiments.
Supplementary file ppat.1002531.s005.doc: Figure S5 3JHNHA spectra of ^15N-labelled secretin peptide (OutD^680–710) in the absence (red) and presence (black) of pilotin (OutS). The spectra were acquired using a Bruker 700 MHz spectrophotometer at measured at 15°C. […] The 3JHNHA coupling constant was calculated according to measurement of the diagonal-peak to cross-peak intensity ratio in a 3D ^15N separated quantitative J-correlation spectra. […] (DOC) Click here for additional data file.

OutS = test: Bacterial two-hybrid assay; type: cell-based, Dickeya dadantii
Procedure: (§2) Figure S6. Reducing environment prevents interaction of OutS with the C-terminal peptide of OutD. […] Soluble cell extracts of E. coli BL21(DE3) producing either GST alone (lane 1) or GST-OutD649-710 (lanes 2 and 3) were combined with a periplasmic extract containing non-lipidated OutS, then loaded on Glutathione Agarose for 1 h and washed. The incubations were performed in either TBS (lanes 1 and 2) or TBS with 5 mM DTT (lane 3). Bound proteins were eluted with Laemmli sample buffer, separated by Tricine-SDS-PAGE and either stained (upper panel) or probed with OutS antibodies (lower panel). Asterisk indicates a degradation product of GST-OutD649-710. […] The region coding for mature OutS (residues […]) was fused to the C-terminus of T18 subunit of Cya (pUT18-OutS) and the region coding for GST-OutD649-710 was fused to the C-terminus of T25 subunit of Cya (pKT25-GST-Dct). When pUT18-OutS and pKT25-GST-Dct were coexpressed in E. coli DHP1 cya strain, the coresponding fusion proteins were well produced as shown by immunoblotting with anti-OutS and anti-GST antibodies, respectively. […] is indicated by a dot and T25-GST-Dct by a triangle.

non-lipidated OutS = test: GST pull-down assay; type: binding, Dickeya dadantii
Procedure: as §2

secretin = test: Effect of pilotin binding-surface mutations on secretin binding; set-up: species or system Dickeya dadantii; details: in words
From the text: The pET-20b(+) plasmid expressing non-lipidated OutS (residues 26 to 132) fused to N-terminal PelB signal peptide has been constructed previously at a manner as the sequence of mature non-lipidated OutS after cleavage by the signal peptidase LepB is: MDP^26VKNT etc. To fuse a C-terminal 6His tag to non-lipidated OutS, SalI site was introduced at the end of outS sequence by using the primer (5′-ctt gac gcc atg cgc acc gtc gac tga ggg gga agc aac tgc) and the reverse complementary one (mutated bases are underlined). Then, by SalI/XhoI digestion the sequence coding for non-lipidated OutS was fused with that coding for 6His. Mutants of OutS were made using Strategene QuikChange and confirmed by sequencing.
Fluorescence data were collected using a Jasco FP-6300 Spectrofluorometer. To avoid exciting tyrosyl side chains, an excitation wavelength of 290 nm was used. Emission spectra were recorded at 15°C in steps of 2 nm from 310 to 400 nm. The fluorescence signal at 340 nm was plotted to calculate K d. Pilotin spectra was measured at 1 µM. 50 µM of secretin peptide prepared in 1 µM pilotin was titrated into pilotin solution (for more information see also Table S1 and reference).

[1] = molecular target: T1, non-lipidated pilotin OutS (residues 26 to 132) of Dickeya dadantii (Dickeya dadantii, UniProt Q01567 26-132, disulfide bridge Cys 61-Cys 115); test: other fluorescence titration; quenching of the single tryptophan of pilotin (1 µM) on titration with 50 µM secretin peptide in 1 µM pilotin; excitation 290 nm, signal at 340 nm, 15°C; details: both partners purified
T1 chain: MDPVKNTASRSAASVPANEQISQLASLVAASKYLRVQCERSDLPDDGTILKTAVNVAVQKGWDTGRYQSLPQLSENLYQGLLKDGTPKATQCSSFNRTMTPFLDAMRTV

[2] = molecular target: T1, non-lipidated pilotin OutS (residues 26 …); test: NMR titration; 1H-15N HSQC of 15N-labelled pilotin (100 µM), unlabelled secretin peptides titrated in; 15°C, 20 mM Tris pH 7.0, 150 mM NaCl; details: both partners purified
pilotin = details: ref [11]; cited from earlier work
From the text: This secretin peptide was produced with ^15N-label as a fusion to GST and then released with PreScision protease.

[3] = Cleavage of secretin peptide during lengthy NMR experiments; type: physicochemical; details: during more lengthy NMR experiments; 20 mM Tris pH 7.0, 150 mM NaCl, 15°C
Procedure: (§3) Supplementary file ppat.1002531.s004.doc: Figure S4 The C-terminus of the 62 residue secretin peptide ([…]) is unstructured. ^1H-^15N HSQC spectra of recombinantly produced ^15N-labelled secretin peptide (70 µM peptide in 20 mM Tris pH 7.0 with 150 mM NaCl at 15°C) acquired using a Bruker 700 MHz spectrophotometer. […] The spectra are cleaner than those shown previously (Figure S2 and S3) because the spectra were acquired quickly. […] (DOC) Click here for additional data file.

[4] = NMR 1H-15N HSQC of free secretin peptide (disorder); type: physicochemical; details: 20 mM Tris pH 7.0, 150 mM NaCl, 15°C, 700 MHz
Procedure: as §1, §3

OutD^680–710: 15N-labelled secretin peptide (OutD680–710) (DNNTLRLSGGNTYTFRQVQSSISDFYKPEGR; also: 15N-labelled; UniProt Q01565 680-710, looked up, fragment)
residues of secretin peptide that become helical on binding (pilotin (OutS)): at least four

B1: OutS: Dickeya dadantii type II secretion system pilotin, non-lipidated (residues 26 to 132), UniProt Q01567 (protein)
chain: CQTPAPVKNTASRSAASVPANEQISQLASLVAASKYLRVQCERSDLPDDGTILKTAVNVAVQKGWDTGRYQSLPQLSENLYQGLLKDGTPKATQCSSFNRTMTPFLDAMRTVR
binding to cognate secretin with reducing agent, two-hybrid (OutS; bacterial two-hybrid): unable to bind the cognate secretin | binding to cognate secretin with reducing agent, pull-down (non-lipidated OutS; reducing agent, non-lipidated OutS with GST-OutD649–710): unable to bind the cognate secretin

B2: OutS_L100A (protein, UniProt Q01567 21-133, looked up, variant L100A)
Pilotin OutS: CQTPAPVKNTASRSAASVPANEQISQLASLVAASKYLRVQCERSDLPDDGTILKTAVNVAVQKGWDTGRYQSLPQLSENAYQGLLKDGTPKATQCSSFNRTMTPFLDAMRTVR
effect of mutation on binding (secretin): substantial effect on binding

B3: OutS_S49R (protein, UniProt Q01567 21-133, looked up, variant S49R)
Pilotin OutS: CQTPAPVKNTASRSAASVPANEQISQLARLVAASKYLRVQCERSDLPDDGTILKTAVNVAVQKGWDTGRYQSLPQLSENLYQGLLKDGTPKATQCSSFNRTMTPFLDAMRTVR
effect of mutation on binding (secretin): profound effect on binding

B4: OutS_Q114A (protein, UniProt Q01567 21-133, looked up, variant Q114A)
Pilotin OutS: CQTPAPVKNTASRSAASVPANEQISQLASLVAASKYLRVQCERSDLPDDGTILKTAVNVAVQKGWDTGRYQSLPQLSENLYQGLLKDGTPKATACSSFNRTMTPFLDAMRTVR
effect of mutation on binding (secretin): substantial effect on binding

B5: OutS_L96A (protein, UniProt Q01567 21-133, looked up, variant L96A)
Pilotin OutS: CQTPAPVKNTASRSAASVPANEQISQLASLVAASKYLRVQCERSDLPDDGTILKTAVNVAVQKGWDTGRYQSLPQASENLYQGLLKDGTPKATQCSSFNRTMTPFLDAMRTVR
effect of mutation on binding (secretin): substantial effect on binding

B6: 18 residue synthetic secretin peptide (OutD residues 691 to 708 inclusive) (peptide)
peptide: TYTFRQVQSSISDFYKPE
notes: secretin OutD, Dickeya dadantii, residues 691 to 708 inclusive; also called 18 residue secretin peptide; OutD^691–708; source: synthetic peptide, bought: Generon
Kd [1]: 55 ± 20 nM | stoichiometry N [1]: 1

B7: 62 residue C-terminal secretin peptide (OutD residues 649-710) (peptide)
chain: DPGQFQEASINKYRSFNNEQQQQRGEGNGVLDNNTLRLSGGNTYTFRQVQSSISDFYKPEGR
notes: secretin OutD, Dickeya dadantii, C-terminal 62 residues (649-710); 15N-labelled in one titration, unlabelled in the other; The peptide is slowly cleaved; also called 62 residue secretin peptide; OutD^648–710; source: E. coli BL21(DE3), purified as GST fusion, released with PreScision protease; not shown: GST, N-terminal, cleaved
stoichiometry N [2]: 1

B8: GST-OutD649-710: C-terminal segment of OutD fused to GST; in two-hybrid fused to C-terminus of T25 subunit of Cya (protein)
chain: DPGQFQEASINKYRSFNNEQQQQRGEGNGVLDNNTLRLSGGNTYTFRQVQSSISDFYKPEGR
modifications: not fully specified (N-terminus); also: fused to GST
notes: C-terminal segment of OutD fused to GST; in two-hybrid fused to C-terminus of T25 subunit of Cya
colony colour in bacterial two-hybrid assay (OutS; MacConkey-maltose agar, known interacting couple used as positive control): white colonies | interaction in bacterial two-hybrid assay (OutS; reducing conditions of the bacterial cytoplasm, T25/T18 fusions, E. coli DHP1 cya, MacConkey-maltose agar): does not interact | binding in GST pull-down (non-lipidated OutS; reducing conditions, TBS with 5 mM DTT, 1 h on Glutathione Agarose): does not bind

B9: 62 residue secretin peptide: C-terminal 62 residues of the secretin, produced as a fusion to GST and released with PreScision protease (protein)
chain: DPGQFQEASINKYRSFNNEQQQQRGEGNGVLDNNTLRLSGGNTYTFRQVQSSISDFYKPEGR
modifications: left off: GST, N-terminal, cleaved
notes: C-terminal 62 residues of the secretin, produced as a fusion to GST and released with PreScision protease
binding to pilotin (pilotin): bound to the pilotin | cleavage of peptide [3]: slowly cleaved | structure in solution (dispersion of backbone amides) [4]: intrinsically unstructured | structure in solution (dispersion of backbone amides) ([4]; listed as C-terminal 62 residues): unstructured in solution

From publication PMC3276575, “Structural and Functional Insights into the Pilotin-Secretin Complex of the Type II Secretion System” (PLoS Pathogens, 2012)
